According to publication PMC9482650, “Quantitative fragmentomics allow affinity mapping of interactomes” (Nature Communications, 2022):

Legend:
Experiment in all cases: holdup assay
Design in all cases: key: below the threshold = too weak to quantify, mostly under pKd 3.1 to 4
Details in all cases: plain residues with an end cap or a label only (N-terminal biotin on a linker: ado-ado)
[1] = molecular target: T1, ARHGEF11, O15085
T1 sequence (O15085 42-136, limits assumed, looked up): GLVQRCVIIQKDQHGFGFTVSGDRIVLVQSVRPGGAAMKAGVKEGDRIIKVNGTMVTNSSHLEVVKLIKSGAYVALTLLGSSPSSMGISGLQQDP

[2] = molecular target: TJP1_2, Q07157
[3] = molecular target: T2, DFNB31_1, Q9P202
T2 sequence (Q9P202 135-233, limits assumed, looked up): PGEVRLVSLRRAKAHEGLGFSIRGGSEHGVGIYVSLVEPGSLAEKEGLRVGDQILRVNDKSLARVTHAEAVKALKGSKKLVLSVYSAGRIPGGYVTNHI

[4] = molecular target: TJP2_1, Q9UDY2
[5] = molecular target: T3, PARD3B_1, Q8TEW8
T3 sequence (Q8TEW8 196-299, limits assumed, looked up): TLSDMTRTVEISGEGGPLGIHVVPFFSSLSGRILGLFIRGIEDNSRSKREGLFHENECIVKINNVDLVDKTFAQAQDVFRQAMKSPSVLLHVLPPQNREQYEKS

[6] = molecular target: GRIP2_7, Q9C0E4
[7] = molecular target: T4, GRIP1_3, Q9Y3R0
T4 sequence (Q9Y3R0 247-346, limits assumed, looked up): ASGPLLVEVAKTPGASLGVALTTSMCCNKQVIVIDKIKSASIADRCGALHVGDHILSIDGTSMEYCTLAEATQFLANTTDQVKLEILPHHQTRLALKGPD

[8] = molecular target: DLG1_2, Q12959
[9] = molecular target: T5, RADIL, Q96JH8
T5 sequence (Q96JH8 971-1071, limits assumed, looked up): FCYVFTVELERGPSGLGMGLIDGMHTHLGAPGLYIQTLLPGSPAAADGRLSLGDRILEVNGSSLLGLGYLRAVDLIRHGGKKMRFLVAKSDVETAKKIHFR

[10] = molecular target: MAGI2_4, Q86UL8
[11] = molecular target: T6, TJP3_3, O95049
T6 sequence (O95049 375-456, limits assumed, looked up): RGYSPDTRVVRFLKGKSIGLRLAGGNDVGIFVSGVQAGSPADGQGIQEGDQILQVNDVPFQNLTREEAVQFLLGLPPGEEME

[12] = molecular target: GIPC2, Q8TF65
[13] = molecular target: T7, LNX2_3, Q8N448
T7 sequence (Q8N448 463-564, limits assumed, looked up): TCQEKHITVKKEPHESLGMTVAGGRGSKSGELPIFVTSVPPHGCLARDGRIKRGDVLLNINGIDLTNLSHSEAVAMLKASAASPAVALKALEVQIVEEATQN

[14] = molecular target: T8, LIN7C, Q9NUP9
T8 sequence (Q9NUP9 88-185, limits assumed, looked up): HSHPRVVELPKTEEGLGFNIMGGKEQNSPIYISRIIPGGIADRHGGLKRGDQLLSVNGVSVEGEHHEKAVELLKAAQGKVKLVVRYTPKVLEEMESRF

[15] = molecular target: MAGI2_2, Q86UL8
[16] = molecular target: T9, SIPA1L2, Q9P2F8
T9 sequence (Q9P2F8 945-1036, limits assumed, looked up): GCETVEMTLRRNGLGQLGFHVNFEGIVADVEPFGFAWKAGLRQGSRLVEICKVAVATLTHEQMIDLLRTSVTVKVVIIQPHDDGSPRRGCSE

[17] = molecular target: T10, SNTG2, Q9NY99
T10 sequence (Q9NY99 68-166, limits assumed, looked up): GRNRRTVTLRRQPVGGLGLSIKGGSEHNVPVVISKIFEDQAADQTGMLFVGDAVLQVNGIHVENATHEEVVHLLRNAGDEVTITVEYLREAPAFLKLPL

[18] = molecular target: FRMPD2_1, Q68DX3
[19] = molecular target: FRMPD3, Q5JV73
[20] = molecular target: T11, DFNB31_2, Q9P202
T11 sequence (Q9P202 274-371, limits assumed, looked up): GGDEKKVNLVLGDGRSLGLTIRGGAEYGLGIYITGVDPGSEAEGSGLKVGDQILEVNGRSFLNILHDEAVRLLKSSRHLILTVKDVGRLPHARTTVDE

[21] = molecular target: DLG5_1, Q8TDM6
[22] = molecular target: T12, MPP2, Q14168
T12 sequence (Q14168 180-250, limits assumed, looked up): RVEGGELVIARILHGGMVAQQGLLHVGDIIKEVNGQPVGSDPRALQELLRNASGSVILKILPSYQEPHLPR

[23] = molecular target: Inadl_5, Q8NI35
[24] = molecular target: MAGI1_2, Q96QZ7
[25] = molecular target: CASK, O14936
[26] = molecular target: MAST1, Q9Y2H9
MAST1, Q9Y2H9, sequence (Q9Y2H9 962-1065): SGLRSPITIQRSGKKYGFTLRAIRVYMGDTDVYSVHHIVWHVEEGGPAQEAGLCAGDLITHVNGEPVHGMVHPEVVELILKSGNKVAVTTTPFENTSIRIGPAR

TJP2_1, Q9UDY2, sequence (Q9UDY2 24-128): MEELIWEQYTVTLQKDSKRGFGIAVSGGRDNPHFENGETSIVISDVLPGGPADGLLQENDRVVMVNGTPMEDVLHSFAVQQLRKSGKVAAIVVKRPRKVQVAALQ
Inadl_5, Q8NI35, sequence (Q8NI35 673-780): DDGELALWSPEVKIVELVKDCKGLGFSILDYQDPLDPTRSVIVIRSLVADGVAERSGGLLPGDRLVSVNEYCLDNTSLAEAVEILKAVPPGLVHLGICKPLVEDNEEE
CASK, O14936, sequence (O14936 487-570): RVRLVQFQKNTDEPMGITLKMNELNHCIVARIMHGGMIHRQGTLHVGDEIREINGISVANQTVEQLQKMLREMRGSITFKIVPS
GRIP2_7, Q9C0E4, sequence (Q9C0E4 934-1023): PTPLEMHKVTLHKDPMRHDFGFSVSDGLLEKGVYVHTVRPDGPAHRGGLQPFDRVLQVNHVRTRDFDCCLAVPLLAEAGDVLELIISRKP
FRMPD3, Q5JV73, sequence (Q5JV73 12-100): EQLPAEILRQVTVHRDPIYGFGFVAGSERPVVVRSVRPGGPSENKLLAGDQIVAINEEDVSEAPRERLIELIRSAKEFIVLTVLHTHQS
MAGI1_2, Q96QZ7, sequence (Q96QZ7 456-580): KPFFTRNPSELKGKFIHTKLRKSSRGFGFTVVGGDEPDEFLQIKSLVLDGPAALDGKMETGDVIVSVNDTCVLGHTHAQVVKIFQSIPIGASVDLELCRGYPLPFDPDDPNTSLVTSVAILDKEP
MAGI2_2, Q86UL8, sequence (Q86UL8 410-522): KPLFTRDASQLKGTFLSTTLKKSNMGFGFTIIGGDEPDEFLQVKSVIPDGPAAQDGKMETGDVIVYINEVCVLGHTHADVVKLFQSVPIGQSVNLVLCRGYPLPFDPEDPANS
DLG5_1, Q8TDM6, sequence (Q8TDM6 617-713): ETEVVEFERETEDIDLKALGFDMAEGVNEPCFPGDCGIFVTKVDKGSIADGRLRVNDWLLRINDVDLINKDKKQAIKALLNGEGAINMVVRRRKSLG
DLG1_2, Q12959, sequence (Q12959 314-412): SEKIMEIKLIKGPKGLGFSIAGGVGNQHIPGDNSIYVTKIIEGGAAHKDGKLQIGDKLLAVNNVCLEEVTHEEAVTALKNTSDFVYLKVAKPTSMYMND
GIPC2, Q8TF65, sequence (Q8TF65 112-203): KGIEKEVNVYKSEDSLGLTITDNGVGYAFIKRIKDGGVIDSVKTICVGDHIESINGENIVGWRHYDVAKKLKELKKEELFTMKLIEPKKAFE
TJP1_2, Q07157, sequence (Q07157 181-274): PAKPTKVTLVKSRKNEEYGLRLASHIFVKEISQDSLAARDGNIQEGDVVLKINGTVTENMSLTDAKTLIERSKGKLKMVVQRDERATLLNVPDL
MAGI2_4, Q86UL8, sequence (Q86UL8 772-865): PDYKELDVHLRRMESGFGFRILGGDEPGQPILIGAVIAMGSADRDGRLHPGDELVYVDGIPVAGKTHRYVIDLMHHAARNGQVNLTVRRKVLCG
FRMPD2_1, Q68DX3, sequence (Q68DX3 770-861): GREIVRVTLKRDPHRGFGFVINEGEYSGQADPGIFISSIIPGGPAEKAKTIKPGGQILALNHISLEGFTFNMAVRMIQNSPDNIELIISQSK

## ILRKSTTTTV [PRR16, Q569H4]
[1]
  pKd: 4.04
[2]
  pKd: below the threshold
[3]
  pKd: below the threshold
[4]
  pKd: 3.83
[5]
  pKd: below the threshold
[6]
  pKd: below the threshold
[7]
  pKd: below the threshold
[8]
  pKd: 5.43
[9]
  pKd: 3.64
[10]
  pKd: 4.14
[11]
  pKd: below the threshold
[12]
  pKd: below the threshold
[13]
  pKd: below the threshold
[14]
  pKd: below the threshold
[15]
  pKd: 5.2
[16]
  pKd: below the threshold
[17]
  pKd: below the threshold
[18]
  pKd: below the threshold
[19]
  pKd: below the threshold
[20]
  pKd: below the threshold
[21]
  pKd: below the threshold
[22]
  pKd: below the threshold
[23]
  pKd: below the threshold
[24]
  pKd: 4.76
[25]
  pKd: below the threshold
[26]
  pKd: 4.29

## NIAESLESLV [PTPRZ1, P23471]
[1]
  pKd: 3.67
[2]
  pKd: below the threshold
[3]
  pKd: 3.8
[4]
  pKd: below the threshold
[5]
  pKd: below the threshold
[6]
  pKd: below the threshold
[7]
  pKd: below the threshold
[8]
  pKd: 5.31
[9]
  pKd: 4.3
[10]
  pKd: 4.45
[11]
  pKd: below the threshold
[12]
  pKd: below the threshold
[13]
  pKd: below the threshold
[14]
  pKd: 4.08
[15]
  pKd: 4.28
[16]
  pKd: below the threshold
[17]
  pKd: 4.34
[18]
  pKd: below the threshold
[19]
  pKd: below the threshold
[20]
  pKd: below the threshold
[21]
  pKd: below the threshold
[22]
  pKd: below the threshold
[23]
  pKd: below the threshold
[24]
  pKd: 3.81
[25]
  pKd: below the threshold
[26]
  pKd: below the threshold

## LESTTVGTSV [KARS1, Q15046]
[1]
  pKd: 4.04
[2]
  pKd: below the threshold
[3]
  pKd: 3.61
[4]
  pKd: below the threshold
[5]
  pKd: below the threshold
[6]
  pKd: below the threshold
[7]
  pKd: below the threshold
[8]
  pKd: 4.34
[9]
  pKd: below the threshold
[10]
  pKd: 4.31
[11]
  pKd: below the threshold
[12]
  pKd: below the threshold
[13]
  pKd: below the threshold
[14]
  pKd: below the threshold
[15]
  pKd: below the threshold
[16]
  pKd: below the threshold
[17]
  pKd: below the threshold
[18]
  pKd: below the threshold
[19]
  pKd: below the threshold
[20]
  pKd: below the threshold
[21]
  pKd: below the threshold
[22]
  pKd: below the threshold
[23]
  pKd: below the threshold
[24]
  pKd: below the threshold
[25]
  pKd: below the threshold
[26]
  pKd: 4.53

## VKRNSKETVV [MARCHF3, Q86UD3]
[1]
  pKd: 4.04
[2]
  pKd: below the threshold
[3]
  pKd: 3.64
[4]
  pKd: 3.8
[5]
  pKd: below the threshold
[6]
  pKd: below the threshold
[7]
  pKd: below the threshold
[8]
  pKd: 6.11
[9]
  pKd: 4.04
[10]
  pKd: 4.21
[11]
  pKd: below the threshold
[12]
  pKd: below the threshold
[13]
  pKd: below the threshold
[14]
  pKd: 3.95
[15]
  pKd: 5.26
[16]
  pKd: below the threshold
[17]
  pKd: 4.54
[18]
  pKd: 3.8
[19]
  pKd: below the threshold
[20]
  pKd: below the threshold
[21]
  pKd: below the threshold
[22]
  pKd: below the threshold
[23]
  pKd: 3.67
[24]
  pKd: 4.6
[25]
  pKd: below the threshold
[26]
  pKd: below the threshold

## STKRKLASAV [NCF1, P14598]
[1]
  pKd: 3.74
[2]
  pKd: below the threshold
[3]
  pKd: below the threshold
[4]
  pKd: below the threshold
[5]
  pKd: below the threshold
[6]
  pKd: below the threshold
[7]
  pKd: below the threshold
[8]
  pKd: 4.61
[9]
  pKd: below the threshold
[10]
  pKd: below the threshold
[11]
  pKd: below the threshold
[12]
  pKd: below the threshold
[13]
  pKd: below the threshold
[14]
  pKd: below the threshold
[15]
  pKd: 5.44
[16]
  pKd: below the threshold
[17]
  pKd: below the threshold
[18]
  pKd: below the threshold
[19]
  pKd: below the threshold
[20]
  pKd: below the threshold
[21]
  pKd: below the threshold
[22]
  pKd: below the threshold
[23]
  pKd: below the threshold
[24]
  pKd: 5.08
[25]
  pKd: below the threshold
[26]
  pKd: below the threshold

## MQHQRTHTRV [ZSCAN30, Q86W11]
[1]
  pKd: 4.3
[2]
  pKd: below the threshold
[3]
  pKd: 3.81
[4]
  pKd: 4.16
[5]
  pKd: below the threshold
[6]
  pKd: below the threshold
[7]
  pKd: below the threshold
[8]
  pKd: 5.12
[9]
  pKd: 4.14
[10]
  pKd: 3.49
[11]
  pKd: below the threshold
[12]
  pKd: 3.48
[13]
  pKd: below the threshold
[14]
  pKd: below the threshold
[15]
  pKd: 5.42
[16]
  pKd: below the threshold
[17]
  pKd: 3.86
[18]
  pKd: 3.88
[19]
  pKd: below the threshold
[20]
  pKd: below the threshold
[21]
  pKd: below the threshold
[22]
  pKd: below the threshold
[23]
  pKd: below the threshold
[24]
  pKd: 4.87
[25]
  pKd: below the threshold
[26]
  pKd: 3.54
